Reference: publication PMC5104429 (2016)

B1: Flag-tagged wild type LRRK2 (leucine-rich repeat kinase 2) [human] / Full length V5-tagged FADD [not stated] (parent complex)
chain 1: MASGSCQGCEEDEETLKKLIVRLNNVQEGKQIETLVQILEDLLVFTYSERASKLFQGKNIHVPLLIVLDSYMRVASVQQVGWSLLCKLIEVCPGTMQSLMGPQDVGNDWEVLGVHQLILKMLTVHNASVNLSVIGLKTLDLLLTSGKITLLILDEESDIFMLIFDAMHSFPANDEVQKLGCKALHVLFERVSEEQLTEFVENKDYMILLSALTNFKDEEEIVLHVLHCLHSLAIPCNNVEVLMSGNVRCYNIVVEAMKAFPMSERIQEVSCCLLHRLTLGNFFNILVLNEVHEFVVKAVQQYPENAALQISALSCLALLTETIFLNQDLEEKNENQENDDEGEEDKLFWLEACYKALTWHRKNKHVQEAACWALNNLLMYQNSLHEKIGDEDGHFPAHREVMLSMLMHSSSKEVFQASANALSTLLEQNVNFRKILLSKGIHLNVLELMQKHIHSPEVAESGCKMLNHLFEGSNTSLDIMAAVVPKILTVMKRHETSLPVQLEALRAILHFIVPGMPEESREDTEFHHKLNMVKKQCFKNDIHKLVLAALNRFIGNPGIQKCGLKVISSIVHFPDALEMLSLEGAMDSVLHTLQMYPDDQEIQCLGLSLIGYLITKKNVFIGTGHLLAKILVSSLYRFKDVAEIQTKGFQTILAILKLSASFSKLLVHHSFDLVIFHQMSSNIMEQKDQQFLNLCCKCFAKVAMDDYLKNVMLERACDQNNSIMVECLLLLGADANQAKEGSSLICQVCEKESSPKLVELLLNSGSREQDVRKALTISIGKGDSQIISLLLRRLALDVANNSICLGGFCIGKVEPSWLGPLFPDKTSNLRKQTNIASTLARMVIRYQMKSAVEEGTASGSDGNFSEDVLSKFDEWTFIPDSSMDSVFAQSDDLDSEGSEGSFLVKKKSNSISVGEFYRDAVLQRCSPNLQRHSNSLGPIFDHEDLLKRKRKILSSDDSLRSSKLQSHMRHSDSISSLASEREYITSLDLSANELRDIDALSQKCCISVHLEHLEKLELHQNALTSFPQQLCETLKSLTHLDLHSNKFTSFPSYLLKMSCIANLDVSRNDIGPSVVLDPTVKCPTLKQFNLSYNQLSFVPENLTDVVEKLEQLILEGNKISGICSPLRLKELKILNLSKNHISSLSENFLEACPKVESFSARMNFLAAMPFLPPSMTILKLSQNKFSCIPEAILNLPHLRSLDMSSNDIQYLPGPAHWKSLNLRELLFSHNQISILDLSEKAYLWSRVEKLHLSHNKLKEIPPEIGCLENLTSLDVSYNLELRSFPNEMGKLSKIWDLPLDELHLNFDFKHIGCKAKDIIRFLQQRLKKAVPYNRMKLMIVGNTGSGKTTLLQQLMKTKKSDLGMQSATVGIDVKDWPIQIRDKRKRDLVLNVWDFAGREEFYSTHPHFMTQRALYLAVYDLSKGQAEVDAMKPWLFNIKARASSSPVILVGTHLDVSDEKQRKACMSKITKELLNKRGFPAIRDYHFVNATEESDALAKLRKTIINESLNFKIRDQLVVGQLIPDCYVELEKIILSERKNVPIEFPVIDRKRLLQLVRENQLQLDENELPHAVHFLNESGVLLHFQDPALQLSDLYFVEPKWLCKIMAQILTVKVEGCPKHPKGIISRRDVEKFLSKKRKFPKNYMSQYFKLLEKFQIALPIGEEYLLVPSSLSDHRPVIELPHCENSEIIIRLYEMPYFPMGFWSRLINRLLEISPYMLSGRERALRPNRMYWRQGIYLNWSPEAYCLVGSEVLDNHPESFLKITVPSCRKGCILLGQVVDHIDSLMEEWFPGLLEIDICGEGETLLKKWALYSFNDGEEHQKILLDDLMKKAEEGDLLVNPDQPRLTIPISQIAPDLILADLPRNIMLNNDELEFEQAPEFLLGDGSFGSVYRAAYEGEEVAVKIFNKHTSLRLLRQELVVLCHLHHPSLISLLAAGIRPRMLVMELASKGSLDRLLQQDKASLTRTLQHRIALHVADGLRYLHSAMIIYRDLKPHNVLLFTLYPNAAIIAKIADYGIAQYCCRMGIKTSEGTPGFRAPEVARGNVIYNQQADVYSFGLLLYDILTTGGRIVEGLKFPNEFDELEIQGKLPDPVKEYGCAPWPMVEKLIKQCLKENPQERPTSAQVFDILNSAELVCLTRRILLPKNVIVECMVATHHNSRNASIWLGCGHTDRGQLSFLDLNTEGYTSEEVADSRILCLALVHLPVEKESWIVSGTQSGTLLVINTEDGKKRHTLEKMTDSVTCLYCNSFSKQSKQKNFLLVGTADGKLAIFEDKTVKLKGAAPLKILNIGNVSTPLMCLSESTNSTERNVMWGGCGTKIFSFSNDFTIQKLIETRTSQLFSYAAFSDSNIITVVVDTALYIAKQNSPVVEVWDKKTEKLCGLIDCVHFLREVMVKENKESKHKMSYSGRVKTLCLQKNTALWIGTGGGHILLLDLSTRRLIRVIYNFCNSVRVMMTAQLGSLKNVMLVLGYNRKNTEGTQKQKEIQSCLTVWDINLPHEVQNLEKHIEVRKELAEKMRRTSVE
chain 2: MDPFLVLLHSVSSSLSSSELTELKFLCLGRVGKRKLERVQSGLDLFSMLLEQNDLEPGHTELLRELLASLRRHDLLRRVDDFEAGAAAGAAPGEEDLCAAFNVICDNVGKDWRRLARQLKVSDTKIDSIEDRYPRNLTERVRESLRIWKNTEKENATVAHLVGALRSCQMNLVADLVQEVQQARDLQNRSGAMSPMSWNSDASTSEAS

Variants of: B1
Assay: ELISA (anti-Flag capture, anti-V5 detection); 15 μg of cell extract loaded in each well; parent: 0.61; read off a plot

Variant	response
chain 1 I2020T	~0.77 anti-V5/Total LRRK2
chain 1 A211V	~0.91 anti-V5/Total LRRK2
chain 1 G2019S	~1.2 anti-V5/Total LRRK2
chain 1 K544E	~1.2 anti-V5/Total LRRK2

Further lines, results first:

response	Variant
~0.75 anti-V5/Total LRRK2	chain 1 R1441C
~1.7 anti-V5/Total LRRK2	chain 1 T1410M

Variants of: B1
Assay: co-immunoprecipitation (M2-Flag resin), quantified Western blot band intensity; HEK293T cells; Flag-LRRK2 and V5-FADD at a ratio of 4:1; three independent experiments; parent: 1; read off a plot

Variant	response
chain 1 I2020T	~1.6 norm. to Flag IP
chain 1 A211V	~1.7 norm. to Flag IP
chain 1 G2019S	~1.3 norm. to Flag IP
chain 1 K544E	~1 norm. to Flag IP

More lines, now with the values ahead:

response	Variant
~1.1 norm. to Flag IP	chain 1 R1441C
~2 norm. to Flag IP	chain 1 T1410M
